Source: IntAct's records for PubMed 25239945

B1: Signal peptide peptidase (Homo sapiens), Q8TCT9 (parent)
chain: MDSALSDPHNGSAEAGGPTNSTTRPPSTPEGIALAYGSLLLMALLPIFFGALRSVRCARGKNASDMPETITSRDAARFPIIASCTLLGLYLFFKIFSQEYINLLLSMYFFVLGILALSHTISPFMNKFFPASFPNRQYQLLFTQGSGENKEEIINYEFDTKDLVCLGLSSIVGVWYLLRKHWIANNLFGLAFSLNGVELLHLNNVSTGCILLGGLFIYDVFWVFGTNVMVTVAKSFEAPIKLVFPQDLLEKGLEANNFAMLGLGDVVIPGIFIALLLRFDISLKKNTHTYFYTSFAAYIFGLGLTIFIMHIFKHAQPALLYLVPACIGFPVLVALAKGEVTEMFSYEESNPKDPAAVTESKEGTEASASKGLEKKEK
partner: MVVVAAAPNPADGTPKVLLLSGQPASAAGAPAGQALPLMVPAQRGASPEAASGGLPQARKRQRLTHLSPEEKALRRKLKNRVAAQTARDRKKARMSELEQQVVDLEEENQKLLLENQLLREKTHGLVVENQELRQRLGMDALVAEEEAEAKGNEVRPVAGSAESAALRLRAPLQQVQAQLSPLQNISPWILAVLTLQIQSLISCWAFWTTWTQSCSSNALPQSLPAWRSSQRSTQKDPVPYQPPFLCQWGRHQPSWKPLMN

Variants of: B1
Settings: with XBP1, P17861-1

effect of a mutation on the interaction | Variant
increasing interaction | D265A
